Data published in the FLAb antibody collection (doi:10.7554/elife.23156).

B1: scFv; the commonest letter at each place (parent)
chain 1: EVKLDETGGGLVQPGRPMKLSCVASGFTFSDYWMNWVRQSPEKGLEWVAQIRNKPYNYETYYSDSVKGRFTISRDDSKSSVYLQMNNLRVEDMGIYYCTGSYYGMDYWGQGTSVTVS
chain 2: DVVMTQTPLSLPVSLGDQASISCRSSQSLVHSNGNTYLRWYLQKPGQSPKVLIYKVSNRFSGVPDRFSGSGSGTDFTLKISRVEAEDLGVYFCSQSTHVPWTFGGGTKLEIK

Legend:
[1] = variants of: B1; assay: Kd (Tite-Seq); conditions: with fluorescein; format: scFv 4-4-20, heavy + light
[2] = variants of: B1; assay: yeast surface expression (ratio to wild type); higher = more expressed; conditions: format: scFv 4-4-20, heavy + light

Which Kd [1] does the source give for chain 1 EVKLDETGGGLVQPGRPMKLSCVASGFTTSAYWMNWVRQSPEKGLEWVAQIRNKPYNYETYYSDSVKGRFTISRDDSKSSVYLQMNNLRVEDMGIYYCTGSYYGMDYWGQGTSVTVS chain 2 DVVMTQTPLSLPVSLGDQASISCRSSQSLVHSNGNTYLRWYLQKPGQSPKVLIYKVSNRFSGVPDRFSGSGSGTDFTLKISRVEAEDLGVYFCSQSTHVPWTFGGGTKLEIK [chain 1 F29T D31A] here?
Its Kd is 0.345 µM.

What about the yeast surface expression [2] of the same variant?
The yeast surface expression was 0.838.

For chain 1 EVKLDETGGGLVQPGRPMKLSCVASGFTTSNYWMNWVRQSPEKGLEWVAQIRNKPYNYETYYSDSVKGRFTISRDDSKSSVYLQMNNLRVEDMGIYYCTGSYYGMDYWGQGTSVTVS chain 2 DVVMTQTPLSLPVSLGDQASISCRSSQSLVHSNGNTYLRWYLQKPGQSPKVLIYKVSNRFSGVPDRFSGSGSGTDFTLKISRVEAEDLGVYFCSQSTHVPWTFGGGTKLEIK [chain 1 F29T D31N], which Kd [1] is on record?
The Kd was 0.0189 µM.

And the yeast surface expression [2]?
Its yeast surface expression is 1.01.

What does the source list for chain 1 EVKLDETGGGLVQPGRPMKLSCVASGFTTSPYWMNWVRQSPEKGLEWVAQIRNKPYNYETYYSDSVKGRFTISRDDSKSSVYLQMNNLRVEDMGIYYCTGSYYGMDYWGQGTSVTVS chain 2 DVVMTQTPLSLPVSLGDQASISCRSSQSLVHSNGNTYLRWYLQKPGQSPKVLIYKVSNRFSGVPDRFSGSGSGTDFTLKISRVEAEDLGVYFCSQSTHVPWTFGGGTKLEIK [chain 1 F29T D31P]?
Kd [1]: ≥ 10 µM; yeast surface expression [2]: 1.06

Which results are given for chain 1 EVKLDETGGGLVQPGRPMKLSCVASGFTTSDYWKNWVRQSPEKGLEWVAQIRNKPYNYETYYSDSVKGRFTISRDDSKSSVYLQMNNLRVEDMGIYYCTGSYYGMDYWGQGTSVTVS chain 2 DVVMTQTPLSLPVSLGDQASISCRSSQSLVHSNGNTYLRWYLQKPGQSPKVLIYKVSNRFSGVPDRFSGSGSGTDFTLKISRVEAEDLGVYFCSQSTHVPWTFGGGTKLEIK [chain 1 F29T M34K]?
Kd [1]: ≥ 10 µM; yeast surface expression [2]: 0.35

With chain 1 EVKLDETGGGLVQPGRPMKLSCVASGFTTSDYWNNWVRQSPEKGLEWVAQIRNKPYNYETYYSDSVKGRFTISRDDSKSSVYLQMNNLRVEDMGIYYCTGSYYGMDYWGQGTSVTVS chain 2 DVVMTQTPLSLPVSLGDQASISCRSSQSLVHSNGNTYLRWYLQKPGQSPKVLIYKVSNRFSGVPDRFSGSGSGTDFTLKISRVEAEDLGVYFCSQSTHVPWTFGGGTKLEIK [chain 1 F29T M34N] as the variant, how does the Kd [1] read?
Its Kd is ≥ 10 µM.

What about the yeast surface expression [2] of the same variant?
Its yeast surface expression is 0.548.

With chain 1 EVKLDETGGGLVQPGRPMKLSCVASGFTTSDYWSNWVRQSPEKGLEWVAQIRNKPYNYETYYSDSVKGRFTISRDDSKSSVYLQMNNLRVEDMGIYYCTGSYYGMDYWGQGTSVTVS chain 2 DVVMTQTPLSLPVSLGDQASISCRSSQSLVHSNGNTYLRWYLQKPGQSPKVLIYKVSNRFSGVPDRFSGSGSGTDFTLKISRVEAEDLGVYFCSQSTHVPWTFGGGTKLEIK [chain 1 F29T M34S] as the variant, how does the Kd [1] read?
Its Kd is ≥ 10 µM.

And the yeast surface expression [2]?
Its yeast surface expression is 0.649.

For chain 1 EVKLDETGGGLVQPGRPMKLSCVASGFTTCDYWMNWVRQSPEKGLEWVAQIRNKPYNYETYYSDSVKGRFTISRDDSKSSVYLQMNNLRVEDMGIYYCTGSYYGMDYWGQGTSVTVS chain 2 DVVMTQTPLSLPVSLGDQASISCRSSQSLVHSNGNTYLRWYLQKPGQSPKVLIYKVSNRFSGVPDRFSGSGSGTDFTLKISRVEAEDLGVYFCSQSTHVPWTFGGGTKLEIK [chain 1 F29T S30C], which Kd [1] is on record?
Its Kd is 0.0391 µM.

And the yeast surface expression [2]?
The yeast surface expression was 0.804.

For chain 1 EVKLDETGGGLVQPGRPMKLSCVASGFTTDDYWVNWVRQSPEKGLEWVAQIRNKPYNYETYYSDSVKGRFTISRDDSKSSVYLQMNNLRVEDMGIYYCTGSYYGMDYWGQGTSVTVS chain 2 DVVMTQTPLSLPVSLGDQASISCRSSQSLVHSNGNTYLRWYLQKPGQSPKVLIYKVSNRFSGVPDRFSGSGSGTDFTLKISRVEAEDLGVYFCSQSTHVPWTFGGGTKLEIK [chain 1 F29T S30D M34V], which Kd [1] is on record?
The Kd was ≥ 10 µM.

And the yeast surface expression [2]?
The yeast surface expression was 0.837.

With chain 1 EVKLDETGGGLVQPGRPMKLSCVASGFTTSDYWMNDVRQSPEKGLEWVAQIRNKPYNYETYYSDSVKGRFTISRDDSKSSVYLQMNNLRVEDMGIYYCTGSYYGMDYWGQGTSVTVS chain 2 DVVMTQTPLSLPVSLGDQASISCRSSQSLVHSNGNTYLRWYLQKPGQSPKVLIYKVSNRFSGVPDRFSGSGSGTDFTLKISRVEAEDLGVYFCSQSTHVPWTFGGGTKLEIK [chain 1 F29T W36D] as the variant, how does the Kd [1] read?
The Kd was ≥ 10 µM.

And the yeast surface expression [2]?
Its yeast surface expression is 0.484.

What does the source list for chain 1 EVKLDETGGGLVQPGRPMKLSCVASGFTTSDPWMNWVRQSPEKGLEWVAQIRNKPYNYETYYSDSVKGRFTISRDDSKSSVYLQMNNLRVEDMGIYYCTGSYYGMDYWGQGTSVTVS chain 2 DVVMTQTPLSLPVSLGDQASISCRSSQSLVHSNGNTYLRWYLQKPGQSPKVLIYKVSNRFSGVPDRFSGSGSGTDFTLKISRVEAEDLGVYFCSQSTHVPWTFGGGTKLEIK [chain 1 F29T Y32P]?
Kd [1]: ≥ 10 µM; yeast surface expression [2]: 0.901

Which Kd [1] does the source give for chain 1 EVKLDETGGGLVQPGRPMKLSCVASGFTTSDRWMNWVRQSPEKGLEWVAQIRNKPYNYETYYSDSVKGRFTISRDDSKSSVYLQMNNLRVEDMGIYYCTGSYYGMDYWGQGTSVTVS chain 2 DVVMTQTPLSLPVSLGDQASISCRSSQSLVHSNGNTYLRWYLQKPGQSPKVLIYKVSNRFSGVPDRFSGSGSGTDFTLKISRVEAEDLGVYFCSQSTHVPWTFGGGTKLEIK [chain 1 F29T Y32R] here?
Its Kd is 1.14 µM.

What about the yeast surface expression [2] of the same variant?
Its yeast surface expression is 1.06.

Which results are given for chain 1 EVKLDETGGGLVQPGRPMKLSCVASGFTTSDSHMNWVRQSPEKGLEWVAQIRNKPYNYETYYSDSVKGRFTISRDDSKSSVYLQMNNLRVEDMGIYYCTGSYYGMDYWGQGTSVTVS chain 2 DVVMTQTPLSLPVSLGDQASISCRSSQSLVHSNGNTYLRWYLQKPGQSPKVLIYKVSNRFSGVPDRFSGSGSGTDFTLKISRVEAEDLGVYFCSQSTHVPWTFGGGTKLEIK [chain 1 F29T Y32S W33H]?
Kd [1]: ≥ 10 µM; yeast surface expression [2]: 0.659
